Experimental data: paper PMC4303003

B1: wild type AcrB (Escherichia coli multidrug transporter AcrB) [E. coli] / itself (parent)
chain: MPNFFIDRPIFAWVIAIIIMLAGGLAILKLPVAQYPTIAPPAVTISASYPGADAKTVQDTVTQVIEQNMNGIDNLMYMSSNSDSTGTVQITLTFESGTDADIAQVQVQNKLQLAMPLLPQEVQQQGVSVEKSSSSFLMVVGVINTDGTMTQEDISDYVAANMKDAISRTSGVGDVQLFGSQYAMRIWMNPNELNKFQLTPVDVITAIKAQNAQVAAGQLGGTPPVKGQQLNASIIAQTRLTSTEEFGKILLKVNQDGSRVLLRDVAKIELGGENYDIIAEFNGQPASGLGIKLATGANALDTAAAIRAELAKMEPFFPSGLKIVYPYDTTPFVKISIHEVVKTLVEAIILVFLVMYLFLQNFRATLIPTIAVPVVLLGTFAVLAAFGFSINTLTMFGMVLAIGLLVDDAIVVVENVERVMAEEGLPPKEATRKSMGQIQGALVGIAMVLSAVFVPMAFFGGSTGAIYRQFSITIVSAMALSVLVALILTPALCATMLKPIAKGDHGEGKKGFFGWFNRMFEKSTHHYTDSVGGILRSTGRYLVLYLIIVVGMAYLFVRLPSSFLPDEDQGVFMTMVQLPAGATQERTQKVLNEVTHYYLTKEKNNVESVFAVNGFGFAGRGQNTGIAFVSLKDWADRPGEENKVEAITMRATRAFSQIKDAMVFAFNLPAIVELGTATGFDFELIDQAGLGHEKLTQARNQLLAEAAKHPDMLTSVRPNGLEDTPQFKIDIDQEKAQALGVSINDINTTLGAAWGGSYVNDFIDRGRVKKVYVMSEAKYRMLPDDIGDWYVRAADGQMVPFSAFSSSRWEYGSPRLERYNGLPSMEILGQAAPGKSTGEAMELMEQLASKLPTGVGYDWTGMSYQERLSGNQAPSLYAISLIVVFLCLAALYESWSIPFSVMLVVPLGVIGALLAATFRGLTNDVYFQVGLLTTIGLSAKNAILIVEFAKDLMDKEGKGLIEATLDAVRMRLRPILMTSLAFILGVMPLVISTGAGSGAQNAVGTGVMGGMVTATVLAIFFVPVFFVVVRRRFSRKNEDIEHSHTVDHH

Variants of: B1
Assay: BN-PAGE
Details: with itself; read off a plot

Row | Variant | screen value
1 | chain 1 D256N P223G | 0.41
2 | chain 1 P800S P223G | 0.11
3 | chain 1 P223G | 0.26
4 | chain 1 G257V P223G | 0.15
5 | chain 1 E810K P223G | 0.11
6 | chain 1 A209V P223G | 0.4
7 | chain 1 M662I P223G | 0.19
8 | chain 1 Q737L P223G | 0.075
9 | chain 1 T199M P223G | 0.7
10 | chain 1 D788K P223G | 0.15
